Laboratory results from the RNAGym collection of RNA variant scans (doi:10.1073/pnas.2313332121).

B1: TPR t1 (parent)
chain: GACCAAUCUGCCCUCAGAGCUCGAGAACAUCUUCGGAUGCAGAGGAGGCAGGCUUCGGUGGCGCGAUAGCGCCAACGUCCUCAACCUCCAAUGCAUCCCACCACAUGAUGAUGCCUGAAGAGCCUUGGUUUUUUG

Variants of: B1
Assay: polymerase ribozyme fitness, log enrichment relative to wild type (log ratio); higher = more active; in vitro selection for triplet polymerase activity
How it was run: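 Mutant libraries for each subunit of a heterodimeric triplet polymerase ribozyme were made by PCR and then transcribed. Each library underwent one round of in vitro selection in triplicate: annealing with a biotinylated primer, the partner subunit and triplets, frozen incubation at −7 °C, gel excision of extended constructs, streptavidin-bead capture and RT-PCR. Input and output libraries were Illumina-sequenced, and only genotypes with ≥10 input reads and ≥1 read per output were kept. Fitness is the logarithm, base 2, of genotype enrichment over wild-type enrichment, computed from inverse-variance-weighted replicate averages.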

In order of rising “polymerase ribozyme fitness (log ratio)” value:
1. G47U C56G G69C C76A A119G U129C  -7.91
2. G48C C53A C79G C99A C124A  -7.85
3. G48A G107A  -7.39
4. G48A C64G U81A C89A  -7.34
5. G47C G63U C102A U112C G113U  -7.27
6. G47C G52C A68U U109A  -7.13
7. G47C G77U C88A C97U G113C G117C  -6.98
8. G47U C70G  -6.87
9. G47U C79G A100G C114G  -6.83
10. G48C C56G G71A C97A C104U U112G  -6.76
11. G48A C49G G51U C94A A111U  -6.59
12. G48A G51A G71A C79A A84U G128A U129G  -6.49
13. G47U C64A C80G U87G C88A U112A  -6.27
14. G48A C72U G77C C82G A91C G110C G127C  -6.25
15. G48A A75U C79G A90U A95C G120A U129G  -6.14
16. G47U G58A G63U A90G G117C  -6.13
17. G48A A84C C86U U87G G117A G128U  -6.08
18. G47C G110C  -6.05
19. G47A U59C C79G G120A G128A G135U  -5.95
20. G47U C80A  -5.8
21. G47U U54C C76A U92C  -5.69
22. G47U C97A  -5.54
23. G48C A50G G51U C56G G117A  -5.49
24. G48C A103G  -5.44
25. G48A C56U U59C C86A C94A A111C  -5.39
26. G48A G61A A103C C104U  -5.34
27. G47U C72G G117U  -5.24
28. G47C C49G U55G C73G C97A A119G  -5.16
29. G47U G58C C73G C104U A121U  -5.16
30. G47C G63U A90U  -5.15
31. G47C C73U C102U G127U  -5.08
32. G48A G63A C97A U112C  -4.92
33. G47A G110C  -4.91
34. G47U G51U  -4.87
35. G47U C64A A121U  -4.82
36. G47U G77U C94A U116C A121C  -4.66
37. G48A C88A G113U G120A  -4.63
38. G47U U55A C70U C94G  -4.62
39. G47U C49G C62U C88A A95C C123A  -4.59
40. G47C A90G G117C  -4.53
41. G48C C49U A111U U133A  -4.49
42. G48A U54G G71U C85U  -4.47
43. G47U G69A  -4.35
44. G47U G71C C104A  -4.32
45. G47U C70A  -4.28
46. G47A U78C G113U  -4.27
47. G47U U78C A111U  -4.07
48. G47A G113C G122A  -4.01
49. G47C G113C G127C  -3.94
50. G47A U112G G117A  -3.86
51. G48A G71A C102A  -3.85
52. G48A A100U C101U G117A C123A  -3.72
53. G47U G77U U106G  -3.7
54. G47C G93U  -3.69
55. G47U A111U  -3.66
56. G47U U116A  -3.64
57. G47U G63A A111G G120A  -3.58
58. G47U G113U  -3.52
59. G47C G61C  -3.43
60. G47C C79U G93U  -3.38
61. G47U C62U G71U C82A A95U  -3.36
62. G47C G61U C114U  -3.31
63. G47U C102U  -3.31
64. G47U A111C  -3.27
65. G47C G110A  -3.26
66. G48C C49A U129A  -3.14
67. G47A G69A  -3.08
68. G47U U81A  -3.01
69. G47C G52C C73U G120U C123A  -2.99
70. G47C C102U  -2.99
71. G47U C102U C124A U129C  -2.98
72. G47U G71C U125G  -2.97
73. G48A U81A C98U  -2.94
74. G48C C62U  -2.91
75. G47C C73G U81A  -2.91
76. G47U C85G A111C  -2.87
77. G47A G71U C104A  -2.85
78. G47U U55C C101G  -2.84
79. G47U A100C  -2.83
80. G47C G110U  -2.81
81. G47C G48U  -2.71
82. G47U G113C  -2.7
83. G47U G127A  -2.68
84. G47U G48U  -2.67
85. G48A C62A U96A  -2.62
86. G48A G51U  -2.61
87. G47U G127U  -2.57
88. G47A G128A  -2.43
89. G48A U126G  -2.42
90. G47U U130G  -2.4
91. G47C A111G  -2.34
92. G47U G63U  -2.33
93. G47U G63C  -2.32
94. G47C U116C  -2.31
95. G47U A100U  -2.31
96. G48A C62G  -2.29
97. G48A C56G G93U  -2.28
98. G48A G113C  -2.26
99. G47C G93A C124A G127U G135U  -2.23
100. G48C C49A C56U U87A U96A G120C  -2.17
101. G47U C56U U116C  -2.14
102. G47U U116G C124U  -2.14
103. G47U G63A  -2.11
104. G48A C49U C56A A100U  -2.11
105. G47A G69C C73U U106A  -2.08
106. G47U G135U  -2.02
107. G47A G71A  -2.02
108. G48C C56U C73G  -1.95
109. G47U C53A  -1.95
110. G48A U96A  -1.94
111. G48A G57C C115G G122A  -1.91
112. G47U C72A C76A  -1.85
113. G47U C79U  -1.85
114. G48C C56G C62U U78C  -1.82
115. G47C G77U A100U  -1.79
116. G47A G113U C114A A121G  -1.76
117. G48A U78A C98U  -1.75
118. G48C C56A  -1.68
119. G47U G57A G69U  -1.68
120. G48A G63U C88U  -1.66
121. G47U G120C G127C  -1.64
122. G47C C72U A90G C123U  -1.64
123. G48A C115U  -1.61
124. G47U C53U  -1.6
125. G47U C53G U96G C104U A118G C124U  -1.59
126. G47U G48C  -1.51
127. G48A C115A  -1.47
128. G47U U54G C104U  -1.47
129. G47U C49G A50C G57U  -1.42
130. G47A U55G C70A C82U  -1.41
131. G48A A95G U116G  -1.38
132. G48C A50G C53U C73G  -1.36
133. G47C U55G C88U  -1.25
134. G47A U106A U133A  -1.13
135. G48A G63C U132A  -1.12
136. G47C A83U  -1.11
137. G48A C56A  -1.1
138. G48A G71A  -1.09
139. G48A U54C U55A C94A A118U  -1.02
140. G47U A111G  -0.984
141. G48A G60U C115U  -0.887
142. G47A G61U G120U G127A  -0.871
143. G48A U131A  -0.843
144. G48A C70U G71U  -0.828
145. G48A C72U A119U  -0.826
146. G48A C53G U55C C56A  -0.815
147. G48C A111C  -0.761
148. G47A U87A  -0.715
149. G48A G61U U112A U125G G127C  -0.619
150. G48C C49G C82U C124A G127C U133C G135U  -0.601
151. G47A U54C U59A  -0.546
152. G47U C124A  -0.524
153. G47A G71U  -0.472
154. G47C C86A  -0.437
155. G47A G120A  -0.422
156. G48A A50C A84G  -0.336
157. G47U C80U C124A U131G G135A  -0.0494
158. G48A C123A G135A  0.126
159. G47U C124G  0.196
160. G48A U112C  0.294
161. G48A C124U U133G  0.41
162. G48A C124G  0.442
163. G48A C123A  0.577
164. G48A C72G C124U  0.723
165. G48A U112A  0.917
166. G47C C86G C124A  1
167. G47U G48A A121U  1.01
